Laboratory results from patent publication US20230250154A1 (CYTONICS, published 2023).

T1: ADAMTS5 (human, UniProt Q9UNA0 262-622, limits assumed)
T1 sequence (looked up): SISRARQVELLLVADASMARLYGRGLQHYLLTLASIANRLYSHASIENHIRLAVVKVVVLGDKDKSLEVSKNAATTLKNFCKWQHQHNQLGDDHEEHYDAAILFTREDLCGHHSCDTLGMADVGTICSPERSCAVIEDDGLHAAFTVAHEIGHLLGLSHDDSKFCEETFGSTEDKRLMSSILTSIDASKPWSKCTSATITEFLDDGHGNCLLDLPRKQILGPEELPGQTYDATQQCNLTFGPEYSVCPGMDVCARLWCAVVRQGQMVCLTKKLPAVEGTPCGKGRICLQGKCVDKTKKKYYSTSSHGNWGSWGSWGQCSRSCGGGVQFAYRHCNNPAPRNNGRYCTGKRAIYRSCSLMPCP

T2: ADAMTS4 (human, UniProt O75173 213-685, limits assumed)
T2 sequence (looked up): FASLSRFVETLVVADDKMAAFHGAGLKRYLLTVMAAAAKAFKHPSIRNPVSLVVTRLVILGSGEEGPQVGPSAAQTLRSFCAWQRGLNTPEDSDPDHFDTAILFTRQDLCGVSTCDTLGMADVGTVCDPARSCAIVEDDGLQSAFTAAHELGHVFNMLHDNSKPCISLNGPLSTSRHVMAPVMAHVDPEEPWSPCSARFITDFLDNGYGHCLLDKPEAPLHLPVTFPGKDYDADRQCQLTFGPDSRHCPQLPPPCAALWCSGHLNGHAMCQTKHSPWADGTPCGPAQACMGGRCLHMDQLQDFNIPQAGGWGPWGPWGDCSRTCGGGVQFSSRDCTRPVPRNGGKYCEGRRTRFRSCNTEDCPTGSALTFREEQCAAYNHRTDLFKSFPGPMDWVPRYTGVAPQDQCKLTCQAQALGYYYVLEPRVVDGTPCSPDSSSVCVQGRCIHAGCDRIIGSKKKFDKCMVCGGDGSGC

B1: Variant A2M, bait region SEQ ID NO 114 (other)
chain: SVSGKPQYMVLVPSLLHTETTEKGCVLLSYLNETVTVSASLESVRGNRSLFTDLEAENDVLHCVAFAVPKSSSNEEVMFLTVQVKGPTQEFKKRTTVMVKNEDSLVFVQTDKSIYKPGQTVKFRVVSMDENFHPLNELIPLVYIQDPKGNRIAQWQSFQLEGGLKQFSFPLSSEPFQGSYKVVVQKKSGGRTEHPFTVEEFVLPKFEVQVTVPKIITILEEEMNVSVCGLYTYGKPVPGHVTVSICRKYSDASDCHGEDSQAFCEKFSGQLNSHGCFYQQVKTKVFQLKRKEYEMKLHTEAQIQEEGTVVELTGRQSSEITRTITKLSFVKVDSHFRQGIPFFGQVRLVDGKGVPIPNKVIFIRGNEANYYSNATTDEHGLVQFSINTTNVMGTSLTVRVNYKDRSPCYGYQWVSEEHEEAHHTAYLVFSPSKSFVHLEPMSHELPCGHTQTVQAHYILNGGTLLGLKKLSFYYLIMAKGGIVRTGTHGLLVKQEDMKGHFSISIPVKSDIAPVARLLIYAVLPTGDVIGDSAKYDVENCLANKVDLSFSPSQSLPASHAHLRVTAAPQSVCALRAVDQSVLLMKPDAELSASSVYNLLPEKDLTGFPGPLNDQDDEDCINRHNVYINGITYTPVSSTNEKDMYSFLEDMGLKAFTNSKIRKPKMCPQLEAQEAGEGKEEEGLGSPVSQELGQRSELEGRGSPTEGEARGSKLRKYFPETWIWDLVVVNSAGVAEVGVTVPDTITEWKAGAFCLSEDAGLGISSTASLRAFQPFFVELTMPYSVIRGEAFTLKATVLNYLPKCIRVSVQLEASPAFLAVPVEKEQAPHCICANGRQTVSWAVTPKSLGNVNFTVSAEALESQELCGTEVPSVPEHGRKDTVIKPLLVEPEGLEKETTFNSLLCPSGGEVSEELSLKLPPNVVEESARASVSVLGDILGSAMQNTQNLLQMPYGCGEQNMVLFAPNIYVLDYLNETQQLTPEIKSKAIGYLNTGYQRQLNYKHYDGSYSTFGERYGRNQGNTWLTAFVLKTFAQARAYIFIDEAHITQALIWLSQRQKDNGCFRSSGSLLNNAIKGGVEDEVTLSAYITIALLEIPLTVTHPVVRNALFCLESAWKTAQEGDHGSHVYTKALLAYAFALAGNQDKRKEVLKSLNEEAVKKDNSVHWERPQKPKAPVGHFYEPQAPSAEVEMTSYVLLAYLTAQPAPTSEDLTSATNIVKWITKQQNAQGGFSSTQDTVVALHALSKYGAATFTRTGKAAQVTIQSSGTFSSKFQVDNNNRLLLQQVSLPELPGEYSMKVTGEGCVYLQTSLKYNILPEKEEFPFALGVQTLPQTCDEPKAHTSFQISLSVSYTGSRSASNMAIVDVKMVSGFIPLKPTVKMLERSNHVSRTEVSSNHVLIYLDKVSNQTLSLFFTVLQDVPVRDLKPAIVKVYDYYETDEFAIAEYNAPCSKDLGNADYKDDDDKGASHHHHHH
B2: Variant A2M, bait region SEQ ID NO 115 (other)
chain: SVSGKPQYMVLVPSLLHTETTEKGCVLLSYLNETVTVSASLESVRGNRSLFTDLEAENDVLHCVAFAVPKSSSNEEVMFLTVQVKGPTQEFKKRTTVMVKNEDSLVFVQTDKSIYKPGQTVKFRVVSMDENFHPLNELIPLVYIQDPKGNRIAQWQSFQLEGGLKQFSFPLSSEPFQGSYKVVVQKKSGGRTEHPFTVEEFVLPKFEVQVTVPKIITILEEEMNVSVCGLYTYGKPVPGHVTVSICRKYSDASDCHGEDSQAFCEKFSGQLNSHGCFYQQVKTKVFQLKRKEYEMKLHTEAQIQEEGTVVELTGRQSSEITRTITKLSFVKVDSHFRQGIPFFGQVRLVDGKGVPIPNKVIFIRGNEANYYSNATTDEHGLVQFSINTTNVMGTSLTVRVNYKDRSPCYGYQWVSEEHEEAHHTAYLVFSPSKSFVHLEPMSHELPCGHTQTVQAHYILNGGTLLGLKKLSFYYLIMAKGGIVRTGTHGLLVKQEDMKGHFSISIPVKSDIAPVARLLIYAVLPTGDVIGDSAKYDVENCLANKVDLSFSPSQSLPASHAHLRVTAAPQSVCALRAVDQSVLLMKPDAELSASSVYNLLPEKDLTGFPGPLNDQDDEDCINRHNVYINGITYTPVSSTNEKDMYSFLEDMGLKAFTNSKIRKPKMCPQLEEEEGLGSKEEEGLGSPKEEEGLGSKEEEGLGSPKEEEGLGSKLRKYFPETWIWDLVVVNSAGVAEVGVTVPDTITEWKAGAFCLSEDAGLGISSTASLRAFQPFFVELTMPYSVIRGEAFTLKATVLNYLPKCIRVSVQLEASPAFLAVPVEKEQAPHCICANGRQTVSWAVTPKSLGNVNFTVSAEALESQELCGTEVPSVPEHGRKDTVIKPLLVEPEGLEKETTFNSLLCPSGGEVSEELSLKLPPNVVEESARASVSVLGDILGSAMQNTQNLLQMPYGCGEQNMVLFAPNIYVLDYLNETQQLTPEIKSKAIGYLNTGYQRQLNYKHYDGSYSTFGERYGRNQGNTWLTAFVLKTFAQARAYIFIDEAHITQALIWLSQRQKDNGCFRSSGSLLNNAIKGGVEDEVTLSAYITIALLEIPLTVTHPVVRNALFCLESAWKTAQEGDHGSHVYTKALLAYAFALAGNQDKRKEVLKSLNEEAVKKDNSVHWERPQKPKAPVGHFYEPQAPSAEVEMTSYVLLAYLTAQPAPTSEDLTSATNIVKWITKQQNAQGGFSSTQDTVVALHALSKYGAATFTRTGKAAQVTIQSSGTFSSKFQVDNNNRLLLQQVSLPELPGEYSMKVTGEGCVYLQTSLKYNILPEKEEFPFALGVQTLPQTCDEPKAHTSFQISLSVSYTGSRSASNMAIVDVKMVSGFIPLKPTVKMLERSNHVSRTEVSSNHVLIYLDKVSNQTLSLFFTVLQDVPVRDLKPAIVKVYDYYETDEFAIAEYNAPCSKDLGNADYKDDDDKGASHHHHHH
B3: Variant A2M, bait region SEQ ID NO 116 (other)
chain: SVSGKPQYMVLVPSLLHTETTEKGCVLLSYLNETVTVSASLESVRGNRSLFTDLEAENDVLHCVAFAVPKSSSNEEVMFLTVQVKGPTQEFKKRTTVMVKNEDSLVFVQTDKSIYKPGQTVKFRVVSMDENFHPLNELIPLVYIQDPKGNRIAQWQSFQLEGGLKQFSFPLSSEPFQGSYKVVVQKKSGGRTEHPFTVEEFVLPKFEVQVTVPKIITILEEEMNVSVCGLYTYGKPVPGHVTVSICRKYSDASDCHGEDSQAFCEKFSGQLNSHGCFYQQVKTKVFQLKRKEYEMKLHTEAQIQEEGTVVELTGRQSSEITRTITKLSFVKVDSHFRQGIPFFGQVRLVDGKGVPIPNKVIFIRGNEANYYSNATTDEHGLVQFSINTTNVMGTSLTVRVNYKDRSPCYGYQWVSEEHEEAHHTAYLVFSPSKSFVHLEPMSHELPCGHTQTVQAHYILNGGTLLGLKKLSFYYLIMAKGGIVRTGTHGLLVKQEDMKGHFSISIPVKSDIAPVARLLIYAVLPTGDVIGDSAKYDVENCLANKVDLSFSPSQSLPASHAHLRVTAAPQSVCALRAVDQSVLLMKPDAELSASSVYNLLPEKDLTGFPGPLNDQDDEDCINRHNVYINGITYTPVSSTNEKDMYSFLEDMGLKAFTNSKIRKPKMCPQLEELEGRGSKEEEGLGSIPENFFGVFYESDVMGRGHARLVHVEEPHTKLRKYFPETWIWDLVVVNSAGVAEVGVTVPDTITEWKAGAFCLSEDAGLGISSTASLRAFQPFFVELTMPYSVIRGEAFTLKATVLNYLPKCIRVSVQLEASPAFLAVPVEKEQAPHCICANGRQTVSWAVTPKSLGNVNFTVSAEALESQELCGTEVPSVPEHGRKDTVIKPLLVEPEGLEKETTFNSLLCPSGGEVSEELSLKLPPNVVEESARASVSVLGDILGSAMQNTQNLLQMPYGCGEQNMVLFAPNIYVLDYLNETQQLTPEIKSKAIGYLNTGYQRQLNYKHYDGSYSTFGERYGRNQGNTWLTAFVLKTFAQARAYIFIDEAHITQALIWLSQRQKDNGCFRSSGSLLNNAIKGGVEDEVTLSAYITIALLEIPLTVTHPVVRNALFCLESAWKTAQEGDHGSHVYTKALLAYAFALAGNQDKRKEVLKSLNEEAVKKDNSVHWERPQKPKAPVGHFYEPQAPSAEVEMTSYVLLAYLTAQPAPTSEDLTSATNIVKWITKQQNAQGGFSSTQDTVVALHALSKYGAATFTRTGKAAQVTIQSSGTFSSKFQVDNNNRLLLQQVSLPELPGEYSMKVTGEGCVYLQTSLKYNILPEKEEFPFALGVQTLPQTCDEPKAHTSFQISLSVSYTGSRSASNMAIVDVKMVSGFIPLKPTVKMLERSNHVSRTEVSSNHVLIYLDKVSNQTLSLFFTVLQDVPVRDLKPAIVKVYDYYETDEFAIAEYNAPCSKDLGNADYKDDDDKGASHHHHHH

Target: T1, ADAMTS5
Test: cell-based or functional assay

| Binder | Protease Inhibition (% of WT) |
| --- | --- |
| B1 | 237 % of WT |
| B2 | 163 % of WT |
| B3 | 92 % of WT |

Target: T2, ADAMTS4
Test: cell-based or functional assay

| Binder | Protease Inhibition (% of WT) |
| --- | --- |
| B1 | 118 % of WT |
| B2 | 108 % of WT |
| B3 | 107 % of WT |

Target: MMP13 (human, UniProt P45452 104-471, limits assumed)
Test: cell-based or functional assay

| Binder | Protease Inhibition (% of WT) |
| --- | --- |
| B1 | 75 % of WT |
| B2 | 78 % of WT |
| B3 | 116 % of WT |
